# Earlier results in PMC12461627, “Locking CBL TKBD in its native conformation presents a novel therapeutic opportunity in mutant CBL-dependent leukemia” (Molecular Therapy, 2025).
# Target: pSYK peptide (Homo sapiens) (UniProt P43405)
# Conditions: cited from earlier work
substance,measurement,value
CBL TKBD (from UniProt P22681),Kd,1.48 µM
